Assays:
human CD20 (human) [1] = target: human CD20 (human) (UniProt P11836); test: QIFIKIT-based quantitative flow cytometry on Cyno iPS-EPI-1504-3_Gluc/CD20 (exogenous CD20)
human CD20 (human) [2] = target: human CD20 (human) (UniProt P11836); test: QIFIKIT-based quantitative flow cytometry on Cyno iPS-EPI-1509-1_Gluc/CD20 (exogenous CD20)
human CD20 (human) [3] = target: human CD20 (human) (UniProt P11836); test: QIFIKIT-based quantitative flow cytometry on Daudi cells (human Burkitt's lymphoma line, endogenous CD20)
human CD20 (human) [4] = target: human CD20 (human) (UniProt P11836); test: QIFIKIT-based quantitative flow cytometry on Cyno iPS-EPI-1504-1_Gluc/CD20 (exogenous CD20)

UniProt P11836, sequence (P11836 whole entry): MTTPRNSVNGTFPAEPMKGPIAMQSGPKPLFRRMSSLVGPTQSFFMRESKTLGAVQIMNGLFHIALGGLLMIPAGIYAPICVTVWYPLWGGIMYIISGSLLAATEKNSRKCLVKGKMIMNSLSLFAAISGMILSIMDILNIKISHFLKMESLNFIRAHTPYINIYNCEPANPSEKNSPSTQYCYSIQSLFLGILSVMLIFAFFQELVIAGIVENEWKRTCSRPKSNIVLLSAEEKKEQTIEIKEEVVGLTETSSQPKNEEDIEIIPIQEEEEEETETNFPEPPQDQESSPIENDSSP

Substance: anti-CD20-FITC (clone 2H7) (antibody)
- CD20 Surface Expression (Copies/Cell) (human CD20 (human) [1]): 1.22e+06 Copies/Cell
- CD20 Surface Expression (Copies/Cell) (human CD20 (human) [2]): 1.48e+06 Copies/Cell
- CD20 Surface Expression (Copies/Cell) (human CD20 (human) [3]): 388000 Copies/Cell
- CD20 Surface Expression (Copies/Cell) (human CD20 (human) [4]): 1.38e+06 Copies/Cell

Source: patent US20150201588A1
